Assay [1] concerns the target CFTR peptide 1097-L, biotinylated (library form) (UniProt P13569). Briefly: ELISA; titration of increasing concentrations of chaperone on immobilised biotinylated peptide; HSC70 with ATP; apparent Kd from linearised binding curves. Background: In an ELISA, binding on a coated surface is turned into a signal by an enzyme label.
The target of assay [2] is Fluorescent peptide FAM-1092-S (UniProt P13569). Briefly: other fluorescence titration; 0.5 μM FAM-1092-S with varying concentrations of chaperone, 45 min; HSC70 in buffer G, DJA1 and DJA2 in buffer H; excitation 492 nm, emission 520 nm; one site total binding fit.
Sequence of Fluorescent peptide FAM-1092-S (P13569 whole entry, looked up, tested part not stated): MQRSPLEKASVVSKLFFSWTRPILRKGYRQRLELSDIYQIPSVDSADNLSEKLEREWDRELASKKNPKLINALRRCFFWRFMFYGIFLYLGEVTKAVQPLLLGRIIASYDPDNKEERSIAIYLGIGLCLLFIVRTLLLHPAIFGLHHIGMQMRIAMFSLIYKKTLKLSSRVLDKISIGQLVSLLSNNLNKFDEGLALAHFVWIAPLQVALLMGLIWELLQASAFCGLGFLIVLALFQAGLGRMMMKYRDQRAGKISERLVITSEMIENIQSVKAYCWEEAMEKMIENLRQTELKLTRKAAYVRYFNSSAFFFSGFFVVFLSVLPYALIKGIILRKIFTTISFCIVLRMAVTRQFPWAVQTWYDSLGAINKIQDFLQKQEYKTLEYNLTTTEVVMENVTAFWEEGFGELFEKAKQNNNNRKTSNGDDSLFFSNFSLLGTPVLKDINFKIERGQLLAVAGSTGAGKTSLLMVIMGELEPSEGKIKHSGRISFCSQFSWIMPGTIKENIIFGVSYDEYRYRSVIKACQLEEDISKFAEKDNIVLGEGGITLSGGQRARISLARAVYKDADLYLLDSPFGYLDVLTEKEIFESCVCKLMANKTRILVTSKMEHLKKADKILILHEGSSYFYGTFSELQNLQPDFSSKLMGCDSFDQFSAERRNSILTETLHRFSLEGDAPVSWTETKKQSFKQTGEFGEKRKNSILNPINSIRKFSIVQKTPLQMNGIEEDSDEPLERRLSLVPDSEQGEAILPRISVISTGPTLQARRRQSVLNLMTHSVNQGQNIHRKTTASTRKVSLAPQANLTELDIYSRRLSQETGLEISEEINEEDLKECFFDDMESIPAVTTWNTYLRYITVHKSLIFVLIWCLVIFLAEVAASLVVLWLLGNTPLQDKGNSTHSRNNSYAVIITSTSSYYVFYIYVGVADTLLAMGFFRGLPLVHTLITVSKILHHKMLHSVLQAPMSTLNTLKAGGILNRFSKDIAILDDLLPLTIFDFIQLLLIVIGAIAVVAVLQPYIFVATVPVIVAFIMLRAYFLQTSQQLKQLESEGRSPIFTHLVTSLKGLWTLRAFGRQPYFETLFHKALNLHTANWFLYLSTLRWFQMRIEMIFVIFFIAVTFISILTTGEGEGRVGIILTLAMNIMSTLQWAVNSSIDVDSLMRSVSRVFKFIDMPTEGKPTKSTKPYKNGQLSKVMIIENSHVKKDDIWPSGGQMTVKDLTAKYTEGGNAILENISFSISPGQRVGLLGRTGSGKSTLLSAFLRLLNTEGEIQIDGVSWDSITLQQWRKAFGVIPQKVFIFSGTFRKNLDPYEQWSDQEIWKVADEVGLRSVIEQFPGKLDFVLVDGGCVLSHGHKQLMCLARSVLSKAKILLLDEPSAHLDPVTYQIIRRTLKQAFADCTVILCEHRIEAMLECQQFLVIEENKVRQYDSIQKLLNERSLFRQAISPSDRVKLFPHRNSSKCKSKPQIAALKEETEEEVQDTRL
The target in assay [3] is DNAJA2 (DJA2), His-tagged (UniProt O60884). Kind of assay: ELISA; competition: 1 μM chaperone mixed with soluble peptide (titrated up to 100 μM, or fixed 100 μM in the screens) and bound to immobilised 1097-L; Kd of the competing peptide from linearised competition curves.
Sequence of DNAJA2 (DJA2), His-tagged (UniProt O60884) (O60884 whole entry): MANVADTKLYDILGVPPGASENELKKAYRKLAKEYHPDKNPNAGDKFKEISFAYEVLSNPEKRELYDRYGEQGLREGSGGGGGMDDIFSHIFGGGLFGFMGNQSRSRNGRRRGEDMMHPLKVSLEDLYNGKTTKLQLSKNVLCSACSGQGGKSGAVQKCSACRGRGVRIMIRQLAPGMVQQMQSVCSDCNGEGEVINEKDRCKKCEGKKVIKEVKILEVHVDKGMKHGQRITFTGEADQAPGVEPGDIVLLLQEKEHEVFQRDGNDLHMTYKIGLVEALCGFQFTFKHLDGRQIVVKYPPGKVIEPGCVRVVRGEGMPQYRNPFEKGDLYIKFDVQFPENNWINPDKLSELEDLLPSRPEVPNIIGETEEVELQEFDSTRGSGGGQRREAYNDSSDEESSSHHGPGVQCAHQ
Assay [4] deals with DNAJA1 (DJA1), His-tagged (UniProt P31689). Described as above.
Assay [5] has as its target HSC70 (HSPA8), His-tagged (UniProt P11142). The description is as above.

Sequence of CFTR peptide 1092-S (P13569 whole entry, looked up, tested part not stated): as the sequence (P13569 whole entry, looked up, tested part not stated) above
Sequence of DNAJA2 (DJA2), His-tagged (from UniProt O60884 1-412) (natural protein) (O60884 whole entry): as the sequence (O60884 whole entry) above
Sequence of HSC70 (HSPA8), His-tagged (from UniProt P11142 1-646) (natural protein) (P11142 whole entry): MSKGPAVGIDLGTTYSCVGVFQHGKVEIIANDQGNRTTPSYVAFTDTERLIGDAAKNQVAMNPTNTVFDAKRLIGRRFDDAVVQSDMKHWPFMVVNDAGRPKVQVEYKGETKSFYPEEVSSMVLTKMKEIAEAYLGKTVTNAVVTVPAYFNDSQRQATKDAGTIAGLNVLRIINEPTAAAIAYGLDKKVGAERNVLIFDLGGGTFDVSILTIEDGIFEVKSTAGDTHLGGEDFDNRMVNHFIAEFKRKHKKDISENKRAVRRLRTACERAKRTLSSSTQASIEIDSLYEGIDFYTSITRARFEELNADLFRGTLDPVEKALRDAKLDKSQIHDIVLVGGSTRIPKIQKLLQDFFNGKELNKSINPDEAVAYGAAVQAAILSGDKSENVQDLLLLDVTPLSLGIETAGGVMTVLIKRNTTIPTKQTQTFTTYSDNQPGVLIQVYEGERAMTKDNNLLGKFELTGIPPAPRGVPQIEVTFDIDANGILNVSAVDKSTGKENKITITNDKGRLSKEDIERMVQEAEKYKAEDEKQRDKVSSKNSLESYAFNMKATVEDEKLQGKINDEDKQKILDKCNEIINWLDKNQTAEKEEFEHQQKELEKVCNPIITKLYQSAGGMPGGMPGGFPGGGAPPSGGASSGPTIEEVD
Sequence of HSC70 (HSPA8), His-tagged (UniProt P11142) (P11142 whole entry): as above

In the case of “HSC70 (HSPA8), His-tagged (from UniProt P11142 1-646) (natural protein)”, the Kd in assay [1] stood at 0.058 µM; in assay [2] it was 6.17 µM.

With “CFTR peptide 1097-L, soluble unmodified (from UniProt P13569 1090-1104)”, the Kd amounted to 0.585 µM in assay [3], 2.43 µM in assay [4] and 0.602 µM in assay [5].

Regarding “DNAJA2 (DJA2), His-tagged (from UniProt O60884 1-412) (natural protein)”, the Kd was 0.075 µM in assay [1] and 8.46 µM in assay [2].

“CFTR peptide 1092-S (from UniProt P13569 1088-1096)”: the Kd in assay [3] amounted to 2.62 µM; in assay [4], 5.47 µM; in assay [5], 1.26 µM.

With “DNAJA1 (DJA1), His-tagged (from UniProt P31689 1-397) (natural protein)”, the Kd in assay [1] worked out at 0.167 µM; in assay [2] it was 3.97 µM.
